This note sets out measurements from publication PMC3827224.

For this assay, the target named is rhodamine-labelled fibronectin from human plasma (human).

As to “F1 functional upstream domain (FUD) peptide of Streptococcus pyogenes F1 (domain or fragment)”, the decrease of rhodamine-fibronectin incorporation into the extracellular matrix of HDF fibroblasts (fluorescence plate assay), 500 nM bead-immobilized peptide, after 12 and 24 hours is 80%.

The substance “FnBPA-derived peptide containing fibronectin-binding repeats 1-11 (FnBR1-11) (domain or fragment)” returned a decrease of rhodamine-fibronectin incorporation into the extracellular matrix of HDF fibroblasts (fluorescence plate assay), 500 nM bead-immobilized peptide, after 12 and 24 hours of 90%.
